Reference: the supplement of paper PMC10724198
± gives the standard deviation of the averaged measurements.

System: Saccharomyces cerevisiae
Assay: protein stability index of tFT-peptide fusion (C-terminal peptide) (PSI (0-1 scale)); higher = more stable (slower turnover)
Conditions: genetic background: wild type; temperature: 30 C
Method: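 Multiplexed protein stability (MPS) profiling in S. cerevisiae. Random 12-aa peptides (tFT-X12 library) are fused to the C-terminus of a sfGFP-mCherry tandem fluorescent timer, after mCherry and a GGGS linker. Cells are FACS-sorted into 8 mCherry/sfGFP bins and deep-sequenced. The protein stability index (PSI) is the read-weighted bin average, scaled from 0 (unstable) to 1 (stable). Only peptides with >10 reads are reported; cells were grown at 30 °C in SC-His with glucose.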
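Also: PSI is a weighted mean of sequencing reads over stability bins, variants kept only with over 10 reads, mCherry proximal and sfGFP distal, peptide attached via GGGS linker.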

| Sequence | protein stability index |
| --- | --- |
| GDGGGCWSGVGW | 0.643 ± 0.1 |
| GDGGGMVEGLSR | 0.66946 ± 0.00014 |
| GDIQRSNNFTIG | 0.779 ± 0.05 |
| GDMKCVTRDSFI | 0.638 ± 0.054 |
| GDMSIWRSNNIT | 0.6723 ± 0.00088 |
| GDRGIKAYGVRG | 0.65 ± 0.015 |
| GDRTIALFFFTI | 0.671 ± 0.024 |
| GDSESRTWCQNL | 0.548 ± 0.02 |
| GDSKTKDEMYKI | 0.6867 ± 0.0045 |
| GDTVLLCDLASC | 0.687 ± 0.0092 |
| GDVLLLVGAGER | 0.706 ± 0.1 |
| GDYGRLINLVTR | 0.6815 ± 0.0059 |
| GEAKAARNKRMI | 0.708 ± 0.024 |
| GEAREEEKKGRW | 0.631 ± 0.027 |
| GEERRGRCGEKQ | 0.597 ± 0.087 |
| GEGGEGWGCFSF | 0.677 ± 0.021 |
| GEGKAGGESEEP | 0.62 ± 0.068 |
| GEGRAAGEIGGV | 0.707 ± 0.033 |
| GEGRRYVVVTEG | 0.693 ± 0.035 |
| GEGVRGGEWGLD | 0.717 ± 0.053 |
| GEKKKAILGKRK | 0.62 ± 0.011 |
| GEQLNWSREPWY | 0.735 ± 0.038 |
| GERKRQQRKREE | 0.707 ± 0.064 |
| GERLGEWGGGVG | 0.669 ± 0.0093 |
| GESGGGAVGGGW | 0.64 ± 0.039 |

| Sequence | protein stability index |
| --- | --- |
| GEVRHCRVTVIA | 0.539 ± 0.036 |
| GFALVVGNLISF | 0.636 ± 0.021 |
| GFATCSFPVCRV | 0.661 ± 0.027 |
| GFCSGGVFVEWV | 0.754 ± 0.065 |
| GFGKRGKDQDTY | 0.595 ± 0.033 |
| GFGSSSFLCFSR | 0.669 ± 0.042 |
| GFHCRLRVSTFG | 0.585 ± 0.019 |
| GFLCFRWACVRL | 0.487 ± 0.028 |
| GFLWLLGGVLGV | 0.658 ± 0.082 |
| GFRVRCSICGSA | 0.681 ± 0.073 |
| GFTVVGCSYVTT | 0.5572 ± 0.0023 |
| GFYPGRSKGCLG | 0.73 ± 0.05 |
| GGAGLGVVLGWW | 0.6833 ± 0.0062 |
| GGAGSFVEKEID | 0.69 ± 0.044 |
| GGALDQADGGRS | 0.7269 ± 0.0014 |
| GGALFVCSSVGR | 0.681 ± 0.033 |
| GGALLGGGAMGL | 0.643 ± 0.037 |
| GGARGDEGGGSA | 0.761 ± 0.055 |
| GGAWGHCSHEWS | 0.6882 ± 0.0052 |
| GGCAAGVGRLAV | 0.624 ± 0.075 |
| GGCCGRVWGSVE | 0.71 ± 0.054 |
| GGCEGIRAVGWV | 0.716 ± 0.04 |
| GGCEWWSWGRGG | 0.729 ± 0.041 |
| GGCGGGGGVVVR | 0.7029 ± 0.0021 |
| GGCNLLGRGPDF | 0.694 ± 0.024 |

| Sequence | protein stability index |
| --- | --- |
| GGCQCFSFPWPP | 0.712 ± 0.087 |
| GGEGRGAFWGGE | 0.68361 ± 0.0002 |
| GGEYVGGRGCGL | 0.682 ± 0.1 |
| GGFASGLCGGVI | 0.728 ± 0.087 |
| GGFGVARVLYGL | 0.712 ± 0.035 |
| GGGAGGEAVRVW | 0.655 ± 0.025 |
| GGGARFGLGGRM | 0.675 ± 0.027 |
| GGGGAGFRGGIE | 0.68 ± 0.0019 |
| GGGGAGGRRGTQ | 0.654 ± 0.0077 |
| GGGGCRVRGLGA | 0.684 ± 0.041 |
| GGGGEVRAWGLR | 0.71 ± 0.032 |
| GGGGGGGGCGVI | 0.77 ± 0.08 |
| GGGGGGGGRARE | 0.707 ± 0.09 |
| GGGGGGGLGGAF | 0.717 ± 0.026 |
| GGGGGGGVGMMW | 0.738 ± 0.02 |
| GGGGGGRLEGGA | 0.66 ± 0.07 |
| GGGGGGVRVARW | 0.687 ± 0.07 |
| GGGGGGVSLGGR | 0.696 ± 0.072 |
| GGGGGSRGVCLG | 0.656 ± 0.063 |
| GGGGGVCGACVV | 0.685 ± 0.016 |
| GGGGRGTAVVGV | 0.66 ± 0.048 |
| GGGGRGVGAGGG | 0.652 ± 0.061 |
| GGGGSAGAGGGG | 0.6221 ± 0.0061 |
| GGGIGWRAGEFG | 0.673 ± 0.0016 |
| GGGRGGGEWVGG | 0.651 ± 0.043 |

| Sequence | protein stability index |
| --- | --- |
| GGGRGRWGPEGE | 0.6902 ± 0.0043 |
| GGGRGTGVEFGA | 0.7 ± 0.03 |
| GGGRGVGCMGCR | 0.688 ± 0.015 |
| GGGRPDRPQRAI | 0.741 ± 0.026 |
| GGGRRRVAGREL | 0.701 ± 0.048 |
| GGGRWGAGVKGV | 0.645 ± 0.028 |
| GGGRYCADDGGR | 0.763 ± 0.051 |
| GGGSLWWDVGYG | 0.6649 ± 0.0016 |
| GGGTLGQWCCDV | 0.6835 ± 0.0029 |
| GGGVGCRSRGAG | 0.595 ± 0.025 |
| GGGVLLRGGSGP | 0.716 ± 0.053 |
| GGGVWYFSWSFC | 0.595 ± 0.045 |
| GGGWGRAYSWWV | 0.705 ± 0.012 |
| GGGWSGRGVGDR | 0.727 ± 0.078 |
| GGGYHLGSCDKL | 0.624 ± 0.025 |
| GGHAAMGRRGRE | 0.73 ± 0.14 |
| GGIRGITSRQPP | 0.576 ± 0.019 |
| GGIVGVSWLVRS | 0.657 ± 0.03 |
| GGLEVDWVGCGV | 0.701 ± 0.012 |
| GGLGSHWDCDGL | 0.734 ± 0.093 |
| GGLGVYQWVDSV | 0.663 ± 0.02 |
| GGLIWRHGVGRG | 0.692 ± 0.018 |
| GGLRPLFLCCLF | 0.569 ± 0.05 |
| GGLSGSRCTLFW | 0.7342 ± 0.0069 |
| GGLVWEESAGVR | 0.7091 ± 0.0016 |

| Sequence | protein stability index |
| --- | --- |
| GGNMPNNCWSRI | 0.698 ± 0.022 |
| GGNSRASAVKGA | 0.702 ± 0.1 |
| GGNTQTNYHGCL | 0.73227 ± 0.00035 |
| GGPAWGRGGMYW | 0.678 ± 0.034 |
| GGPGWGVSGWEG | 0.705 ± 0.015 |
| GGRAWRWVARVG | 0.673 ± 0.045 |
| GGRCAERSDWCG | 0.647 ± 0.016 |
| GGRCGSVGRGGA | 0.735 ± 0.065 |
| GGRFGLGGRLVG | 0.658 ± 0.05 |
| GGRFPGGGGRRR | 0.583 ± 0.06 |
| GGRGSAWRWRRG | 0.674 ± 0.014 |
| GGRLLLLVGFRV | 0.583 ± 0.0066 |
| GGRPVGRRRPGA | 0.671 ± 0.031 |
| GGRQTAVSGLLL | 0.685 ± 0.017 |
| GGRSGVSGVVAG | 0.7021 ± 0.0049 |
| GGRVKPRGVGVG | 0.648 ± 0.016 |
| GGRVPRCRTVLL | 0.681 ± 0.033 |
| GGSGGGRRGVGR | 0.656 ± 0.0095 |
| GGSGLRCCREMG | 0.681 ± 0.022 |
| GGSLPAHPRNPL | 0.701 ± 0.027 |
| GGSRGGTFLWGP | 0.672 ± 0.036 |
| GGSTAKGRPMDT | 0.645 ± 0.0067 |
| GGTEGSGWSGGG | 0.638 ± 0.029 |
| GGTGGRLGVGHV | 0.704 ± 0.073 |
| GGTGRGGEMGGR | 0.7428 ± 0.0069 |

| Sequence | protein stability index |
| --- | --- |
| GGTGRVGEMGGR | 0.755 ± 0.034 |
| GGTWVLGWGLGV | 0.714 ± 0.4 |
| GGVCVGSFLFDR | 0.702 ± 0.029 |
| GGVEVAQGVVWC | 0.715 ± 0.066 |
| GGVGGGRAGVWG | 0.681 ± 0.021 |
| GGVGGPGLDGWK | 0.676 ± 0.059 |
| GGVLAGEWGAGL | 0.624 ± 0.051 |
| GGVSGQLLRSHG | 0.682 ± 0.0027 |
| GGVSVVTRVAPR | 0.658 ± 0.016 |
| GGVVLDEEVGCG | 0.614 ± 0.06 |
| GGWGCGGWGFVG | 0.58568 ± 0.00052 |
| GGWGGGGGAWSG | 0.71 ± 0.041 |
| GGWGWRSGTEGE | 0.665 ± 0.012 |
| GGWHVVGGAGVG | 0.564 ± 0.01 |
| GGWWGGLGCFMV | 0.699 ± 0.034 |
| GGYGGGWRGGGR | 0.626 ± 0.077 |
| GGYRFCSKYKSE | 0.673 ± 0.023 |
| GGYYIFGLCDLL | 0.625 ± 0.075 |
| GHAYKYVDSFRR | 0.654 ± 0.044 |
| GHGGHIVRTSSY | 0.7 ± 0.023 |
| GHLGLFEEETGG | 0.711 ± 0.053 |
| GHRLSMCLGFGK | 0.63 ± 0.01 |
| GHVCTRCVWPRV | 0.606 ± 0.055 |
| GIDARGLYGGAL | 0.66 ± 0.032 |
| GIGCMVYKGGFQ | 0.6977 ± 0.0011 |

| Sequence | protein stability index |
| --- | --- |
| GIGYVTPLSRVL | 0.72 ± 0.038 |
| GIKKNQVSIRYI | 0.606 ± 0.03 |
| GIKMTWTNGQHF | 0.6909 ± 0.0054 |
| GILFFLQLCACS | 0.7014 ± 0.0064 |
| GILNIRKALDGK | 0.6477 ± 0.0026 |
| GIPCRCVCLNQW | 0.6961 ± 0.0017 |
| GIPIQKLEYMCK | 0.669 ± 0.019 |
| GIPPVLFAPPPL | 0.696 ± 0.022 |
| GIQSGGGGGKGG | 0.668 ± 0.015 |
| GIRGECEFHSCD | 0.685 ± 0.015 |
| GIRKRIEKKKIK | 0.7 ± 0.051 |
| GISGGTVSILGV | 0.704 ± 0.0096 |
| GKAIKRPIGIRG | 0.683 ± 0.019 |
| GKALPALPSGLL | 0.657 ± 0.025 |
| GKECLIRKSHDG | 0.674 ± 0.011 |
| GKEKGRAEGRDG | 0.701 ± 0.023 |
| GKILKGAASPSC | 0.72 ± 0.019 |
| GKITKNKDNIET | 0.686 ± 0.021 |
| GKKGKEKGEEKR | 0.716 ± 0.028 |
| GKKKHRSNPRRS | 0.725 ± 0.067 |
| GKKKIDDKGRWI | 0.678 ± 0.14 |
| GKNAEENNIVRE | 0.614 ± 0.083 |
| GKNKRKTYGKRE | 0.722 ± 0.035 |
| GKQKKKHRRNLK | 0.743 ± 0.12 |
| GKQNQEKNKKTS | 0.696 ± 0.045 |

| Sequence | protein stability index |
| --- | --- |
| GKRGRDYIKVRE | 0.6448 ± 0.006 |
| GKRTVLFTRCRQ | 0.5888 ± 0.0055 |
| GKTRKGKKRKRK | 0.666 ± 0.14 |
| GKTRLIEDTQTT | 0.67 ± 0.019 |
| GKVCVLKLSPWI | 0.814 ± 0.16 |
| GKVGSLGLVLSP | 0.682 ± 0.096 |
| GLAFVGWGPRFR | 0.71 ± 0.028 |
| GLAYPAGALSLL | 0.684 ± 0.1 |
| GLCGVCVLKFPR | 0.759 ± 0.15 |
| GLCLLSKDGCLV | 0.669 ± 0.055 |
| GLCRLLEILKLR | 0.63 ± 0.054 |
| GLCSMRLYKPRI | 0.634 ± 0.014 |
| GLEIGMSQVSMG | 0.645 ± 0.036 |
| GLEVGVRGVMGC | 0.688 ± 0.033 |
| GLGGPLSLVYLF | 0.629 ± 0.037 |
| GLGLASSGWGRG | 0.733 ± 0.018 |
| GLGLVSWEAGGG | 0.702 ± 0.017 |
| GLGSSVLQVGVR | 0.689 ± 0.056 |
| GLGVPCDFRVVA | 0.694 ± 0.013 |
| GLGVSLLVGGEA | 0.6572 ± 0.0028 |
| GLQFDPALPLPP | 0.739 ± 0.022 |
